Measurements taken from US20110033389A1 (published 2011).

Legend:
Assay in all cases: cell-based or functional assay
[1] = target: T1, glycoprotein D of Herpes simplex virus, on HSV-1 virus (Herpes simplex virus (HSV-1 virus in …, UniProt A1Z0Q5 26-394))
[2] = target: T1, glycoprotein D of Herpes simplex virus, …; remark: listed apart in the source
[3] = target: T1, glycoprotein D of Herpes simplex virus, …; remark: listed apart in the source

B1: AC8FabTAT (Fab, V domains shown)
VH: QVQLVQSGAEVKKPGSSVKVSCKASGGSFSSYAINWVRQAPGQGLEWMGGLMPIFGTTNYAQKFQDRLTITADVSTSTAYMQLSGLTYEDTAMYYCARVAYMLEPTVTAGGLDVWGQGTTVTVAS
VL: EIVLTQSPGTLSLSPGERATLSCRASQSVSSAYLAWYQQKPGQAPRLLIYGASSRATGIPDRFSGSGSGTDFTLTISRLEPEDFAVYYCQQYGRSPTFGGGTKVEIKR
For B1, the “Plaque Reduction Rate Percentage (Average plaque number per plate) at 0.012 µg/ml; HSV-1 neutralization in solution” value [1] was 0%, the “Plaque Reduction Rate Percentage (Average plaque number per plate) at 0.037 µg/ml; HSV-1 neutralization in solution” value [1] was 14% and the “Plaque Reduction Rate Percentage (Average plaque number per plate) at 0.11 µg/ml; HSV-1 neutralization in solution” value [1] was 33%. The “Plaque Reduction Rate Percentage (Average plaque number per plate) at 0.33 µg/ml; HSV-1 neutralization in solution” value [1] was 77%, the “Plaque Reduction Rate Percentage (Average plaque number per plate) at 1 µg/ml; HSV-1 neutralization in solution” value [1] was 100% and the “Plaque Reduction Rate Percentage (Average plaque number per plate) at 3 µg/ml; HSV-1 neutralization in solution” value [1] was 100%. For the same binder, the “Plaque Reduction Rate Percentage (Average plaque number per plate) at 0.2 µg/ml; virus prevention assay (cells pre-treated with antibody, washed, then HSV-1)” value [2] was 0%, the “Plaque Reduction Rate Percentage (Average plaque number per plate) at 0.6 µg/ml; virus prevention assay (cells pre-treated with antibody, washed, then HSV-1)” value [2] was 0% and the “Plaque Reduction Rate Percentage (Average plaque number per plate) at 1.9 µg/ml; virus prevention assay (cells pre-treated with antibody, washed, then HSV-1)” value [2] was 0%. For the same binder, the “Plaque Reduction Rate Percentage (Average plaque number per plate) at 5.6 µg/ml; virus prevention assay (cells pre-treated with antibody, washed, then HSV-1)” value [2] was 13%, the “Plaque Reduction Rate Percentage (Average plaque number per plate) at 16.7 µg/ml; virus prevention assay (cells pre-treated with antibody, washed, then HSV-1)” value [2] was 37% and the “Plaque Reduction Rate Percentage (Average plaque number per plate) at 50 µg/ml; virus prevention assay (cells pre-treated with antibody, washed, then HSV-1)” value [2] was 68%. The “ED50 against HSV-1 infection; virus prevention assay (cells pre-treated with antibody, washed, then HSV-1)” value [3] was 27 mg/L.

B2: AC8 Fab (Fab, V domains shown)
VH: B1 VH
VL: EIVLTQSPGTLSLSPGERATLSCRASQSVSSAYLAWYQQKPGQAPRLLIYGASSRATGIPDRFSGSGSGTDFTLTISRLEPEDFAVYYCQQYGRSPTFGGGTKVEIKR
B2 was tested, and the “ED50; plaque reduction assay, HSV-1 neutralization in solution” value [3] was ~0.2 mg/L.
